Laboratory results from patent US20230212239A1, “INHIBITORS OF CBL AUTOINHIBITION AND RELATED METHODS” (THE HOSPITAL FOR SICK CHILDREN, priority 2020, published 2023).
Changes are numbered by the printed parent chain.

Columns and labels:
[1] = molecular target: the molecule itself; assay: X-ray crystal structure; two SLAP2 helices in the asymmetric unit
CBL (47-357) A223R = molecular target: T1, CBL (47-357) A223R (UniProt P22681 47-357); assay: Ni-NTA co-purification, low salt (0.15 M NaCl), Coomassie SDS-PAGE
T1 construct: range 47-357; Point mutant within Duet-His-Δlinker-hSLAP2-CBL; also called A223R (CBL mutant)
T1 sequence (looked up): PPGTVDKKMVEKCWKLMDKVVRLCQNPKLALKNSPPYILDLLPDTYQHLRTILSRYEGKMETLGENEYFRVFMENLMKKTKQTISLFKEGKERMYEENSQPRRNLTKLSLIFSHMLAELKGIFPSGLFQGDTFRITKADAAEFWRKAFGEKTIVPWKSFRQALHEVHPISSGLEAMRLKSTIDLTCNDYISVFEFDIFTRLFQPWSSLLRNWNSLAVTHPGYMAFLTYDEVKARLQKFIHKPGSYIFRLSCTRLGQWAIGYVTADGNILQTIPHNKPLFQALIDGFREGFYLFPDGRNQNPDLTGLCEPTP
Experimental: (§1) Cell pellets were resuspended in either high or low salt (as for high salt except 25 mM HEPEs pH 7.5, 150 mM NaCl) lysis buffer and purified as above on Ni-NTA agarose (Qiagen) with wash buffer (25 mM HEPEs pH 7.5, 150 mM NaCl, 2% glycerol, 20 mM imidazole, 10 mM βME). Bead slurry was mixed with SDS 2X loading buffer (125 mM Tris pH 6.8, 4% SDS, 20% glycerol, 0.715 M βME, bromophenol blue), boiled, and analyzed by 10 or 12.5% SDS-PAGE, stained with Coomassie blue.

[2] = molecular target: T2, CBL (47-357), co-expressed from pETDuet-1 MCS2 (UniProt P22681 47-357); assay: Ni-NTA co-purification from Duet co-expression, high salt (0.5 M NaCl), Coomassie SDS-PAGE
T2 construct: range 47-357; Untagged partner in the Duet co-purification trials; also called CBL TKBD
T2 sequence (looked up): T1 sequence (looked up) with R177A
Experimental: as §1

CBL (47-357) S226E = molecular target: T3, CBL (47-357) S226E (UniProt P22681 47-357); assay: Ni-NTA co-purification, low salt (0.15 M NaCl), Coomassie SDS-PAGE
T3 construct: range 47-357; Point mutant within Duet-His-Δlinker-hSLAP2-CBL; also called S226E (CBL mutant)
T3 sequence (looked up): T1 sequence (looked up) with R177A, S180E
Experimental: as §1

B1: mouse SLAP2 (residues 28-259) (other, UniProt Q8R4L0 28-259, looked up)
chain: QPERHKVTAVALGSFPAGEQARLSLRLGEPLTIISEDGDWWTVQSEVSGREYHMPSVYVAKVAHGWLYEGLSREKAEELLLLPGNPGGAFLIRESQTRRGCYSLSVRLSRPASWDRIRHYRIQRLDNGWLYISPRLTFPSLHALVEHYSELADGICCPLREPCVLQKLGPLPGKDTPPPVTVPTSSLNWKKLDRSLLFLEAPASGEASLLSEGLRESLSSYISLAEDPLDDA
notes: range 28-259; Trx-His(6) tag removed with thrombin; In the crystal only residues 237-255 are seen; also called mSLAP2; Trx-His(6)-mSLAP2 (before thrombin cleavage)
[1]
  binding result: binds

B2: Trx-His(6)-Δlinker-hSLAP2 L241R (other)
chain: EAERSKATAVALGSFPAGGPAELSLRLGEPLTIVSEDGDWWTVLSEVSGREYNIPSVHVAKVSHGWLYEGLSREKAEELLLLPGNPGGAFLIRESQTRRGSYSLSVRLSRPASWDRIRHYRIHCLDNGWLYISPRLTFPSLQALVDHYSELADDICCLLKEPCVLQRAGPLPGKDIPLPVTVQRTPLNWKELDSSLLFSEAATGEESLLSEGRRESLSFYISLNDEAVSLDDA
notes: Point mutant within Duet-His-Δlinker-hSLAP2-CBL; not shown: N-terminal thioredoxin (Trx)-His(6)-TEV-site tag and linker of the modified pET32a (Δlinker version)
CBL (47-357) A223R
  binding result: no binding
[2]
  binding result: no binding

B3: Trx-His(6)-Δlinker-hSLAP2 L245P (other)
chain: B2 chain with R213L, L217P
notes: Point mutant within Duet-His-Δlinker-hSLAP2-CBL; not shown: N-terminal Trx-His(6)-TEV site fusion of the modified pET32a (Δlinker form)
[2]
  binding result: no binding

B4: Trx-His(6)-Δlinker-hSLAP2 S244E (other)
chain: B2 chain with R213L, S216E
notes: as for B2
CBL (47-357) S226E
  binding result: no binding
